For assay [1], the target named is human Brachyury protein standard (Abcam ab114235) (human) (UniProt O15178). Briefly: dSimoa sandwich (capture beads + detector m8), 300 pM streptavidin-DNA/15 min; Brachyury at 1.2 fM.
Assay [2] shares this target. Briefly: dSimoa sandwich (capture beads + detector m8), 300 pM streptavidin-DNA/15 min; Brachyury at 30 fM.
Assay [3] shares this target. Briefly: conventional Simoa sandwich (capture beads + detector m8), 300 pM SβG/15 min; Brachyury at 30 fM.
For assay [4] the target is unchanged. Briefly: conventional Simoa sandwich (capture beads + detector m8), 300 pM SβG/15 min; Brachyury at 6 fM.
The target is the same in assay [5]. Briefly: conventional Simoa sandwich (capture beads + detector m8), 300 pM SβG/15 min; Brachyury at 0.24 fM.
For assay [6] the target is unchanged. Briefly: dSimoa sandwich (capture beads + detector m8), 300 pM streptavidin-DNA/15 min; Brachyury at 0.048 fM.
The target is the same in assay [7]. Briefly: conventional Simoa sandwich (capture beads + detector m8), 300 pM SβG/15 min; Brachyury at 1.2 fM.
The target is the same in assay [8]. Briefly: dSimoa sandwich (capture beads + detector m8), 300 pM streptavidin-DNA/15 min; Brachyury at 150 fM.
Assay [9] shares this target. Briefly: dSimoa sandwich (capture beads + detector m8), 300 pM streptavidin-DNA/15 min; Brachyury at 0.24 fM.
For assay [10] the target is unchanged. Briefly: conventional Simoa sandwich (capture beads + detector m8), 150 pM SβG/5 min; Brachyury at 1500 fM.
For assay [11] the target is unchanged. Briefly: conventional Simoa sandwich (capture beads + detector m8), 300 pM SβG/15 min; Brachyury at 1500 fM.
Assay [12] shares this target. Briefly: dSimoa sandwich (capture beads + detector m8), 300 pM streptavidin-DNA/15 min; Brachyury at 6 fM.
The target is the same in assay [13]. Briefly: conventional Simoa sandwich (capture beads + detector m8), 300 pM SβG/15 min; Brachyury at 150 fM.
Assay [14] has the same target. Briefly: conventional Simoa sandwich (capture beads + detector m8), 150 pM SβG/5 min; Brachyury at 0.048 fM.
Assay [15] has the same target. Briefly: conventional Simoa sandwich (capture beads + detector m8), 150 pM SβG/5 min; Brachyury at 30 fM.
Assay [16] has the same target. Briefly: conventional Simoa sandwich (capture beads + detector m8), 150 pM SβG/5 min; Brachyury at 150 fM.
Assay [17] shares this target. Briefly: conventional Simoa sandwich (capture beads + detector m8), 150 pM SβG/5 min; Brachyury at 1.2 fM.
Assay [18] shares this target. Briefly: conventional Simoa sandwich (capture beads + detector m8), 150 pM SβG/5 min; Brachyury at 6 fM.
For assay [19] the target is unchanged. Briefly: conventional Simoa sandwich (capture beads + detector m8), 300 pM SβG/15 min; Brachyury at 0.048 fM.
The target is the same in assay [20]. Briefly: conventional Simoa sandwich (capture beads + detector m8), 150 pM SβG/5 min; Brachyury at 0.24 fM.
In assay [21] the target is human interleukin-10 (IL-10) protein standard (printed as Biolegend 501501) (human) (UniProt P22301). Briefly: dSimoa sandwich (capture beads + detector m5), 150 pM streptavidin-DNA/15 min; IL-10 at 0.12 fM.
Sequence of UniProt P22301 (P22301 19-178 limits assumed): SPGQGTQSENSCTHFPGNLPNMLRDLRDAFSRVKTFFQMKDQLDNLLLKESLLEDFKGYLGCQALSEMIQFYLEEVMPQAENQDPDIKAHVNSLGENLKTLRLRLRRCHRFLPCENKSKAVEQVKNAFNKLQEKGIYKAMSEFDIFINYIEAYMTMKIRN
Assay [22] has the same target. Briefly: conventional Simoa sandwich (capture beads + detector m5), 150 pM SβG/15 min; IL-10 at 15 fM.
The target is the same in assay [23]. Briefly: conventional Simoa sandwich (capture beads + detector m5), 150 pM SβG/5 min; IL-10 at 15 fM.
For assay [24] the target is unchanged. Briefly: conventional Simoa sandwich (capture beads + detector m5), 150 pM SβG/15 min; IL-10 at 0.6 fM.
The target is the same in assay [25]. Briefly: conventional Simoa sandwich (capture beads + detector m5), 150 pM SβG/5 min; IL-10 at 0.024 fM.
Assay [26] has the same target. Briefly: conventional Simoa sandwich (capture beads + detector m5), 150 pM SβG/5 min; IL-10 at 75 fM.
The target is the same in assay [27]. Briefly: conventional Simoa sandwich (capture beads + detector m5), 150 pM SβG/5 min; IL-10 at 3 fM.
Assay [28] has the same target. Briefly: conventional Simoa sandwich (capture beads + detector m5), 150 pM SβG/5 min; IL-10 at 0.6 fM.
Assay [29] has the same target. Briefly: dSimoa sandwich (capture beads + detector m5), 150 pM streptavidin-DNA/15 min; IL-10 at 0.00096 fM.
For assay [30] the target is unchanged. Briefly: conventional Simoa sandwich (capture beads + detector m5), 150 pM SβG/15 min; IL-10 at 75 fM.
Assay [31] shares this target. Briefly: dSimoa sandwich (capture beads + detector m5), 150 pM streptavidin-DNA/15 min; IL-10 at 0.6 fM.
Assay [32] shares this target. Briefly: conventional Simoa sandwich (capture beads + detector m5), 150 pM SβG/15 min; IL-10 at 0.024 fM.
Assay [33] shares this target. Briefly: dSimoa sandwich (capture beads + detector m5), 150 pM streptavidin-DNA/15 min; IL-10 at 3 fM.
The target is the same in assay [34]. Briefly: conventional Simoa sandwich (capture beads + detector m5), 150 pM SβG/5 min; IL-10 at 0.0048 fM.
Assay [35] has the same target. Briefly: conventional Simoa sandwich (capture beads + detector m5), 150 pM SβG/5 min; IL-10 at 0.12 fM.
For assay [36] the target is unchanged. Briefly: dSimoa sandwich (capture beads + detector m5), 150 pM streptavidin-DNA/15 min; IL-10 at 15 fM.
For assay [37] the target is unchanged. Briefly: conventional Simoa sandwich (capture beads + detector m5), 150 pM SβG/15 min; IL-10 at 0.0048 fM.
The target is the same in assay [38]. Briefly: dSimoa sandwich (capture beads + detector m5), 150 pM streptavidin-DNA/15 min; IL-10 at 0.024 fM.
The target is the same in assay [39]. Briefly: dSimoa sandwich (capture beads + detector m5), 150 pM streptavidin-DNA/15 min; IL-10 at 0.0048 fM.
Assay [40] has the same target. Briefly: conventional Simoa sandwich (capture beads + detector m5), 150 pM SβG/15 min; IL-10 at 0.12 fM.
The target is the same in assay [41]. Briefly: conventional Simoa sandwich (capture beads + detector m5), 150 pM SβG/15 min; IL-10 at 3 fM.

Sequence of UniProt O15178 (O15178 whole entry): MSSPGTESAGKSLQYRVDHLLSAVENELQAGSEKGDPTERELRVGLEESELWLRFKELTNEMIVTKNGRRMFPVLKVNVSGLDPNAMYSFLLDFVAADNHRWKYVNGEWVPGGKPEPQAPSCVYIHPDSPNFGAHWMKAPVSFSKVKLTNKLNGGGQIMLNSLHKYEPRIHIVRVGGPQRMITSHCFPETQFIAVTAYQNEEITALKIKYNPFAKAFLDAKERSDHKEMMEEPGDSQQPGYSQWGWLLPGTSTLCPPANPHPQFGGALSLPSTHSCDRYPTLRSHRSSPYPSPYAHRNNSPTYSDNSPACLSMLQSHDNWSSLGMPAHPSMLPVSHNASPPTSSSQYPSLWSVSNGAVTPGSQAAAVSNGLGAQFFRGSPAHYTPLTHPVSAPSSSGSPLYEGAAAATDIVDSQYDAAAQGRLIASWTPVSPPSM

“Brachyury capture antibody (Abcam ab236023)”: the average AMB was determined as 0.0173 AMB in assay [1]; 0.156 AMB in assay [2]; 0.0127 AMB in assay [6]; 0.825 AMB in assay [8]; 0.0147 AMB in [9]; 0.0417 AMB in assay [12]. Also, the average AEB in [3] was 0.358 AEB; in [4], 0.105 AEB; in assay [5], 0.0395 AEB; in assay [7] it was 0.0494 AEB; in [10], 5.97 AEB; in [11], 14.3 AEB. The average AEB stood at 1.77 AEB in assay [13]; 0.0108 AEB in [14]; 0.156 AEB in [15]; 0.677 AEB in assay [16]; 0.0174 AEB in assay [17]; 0.0425 AEB in [18]. Further, the average AEB in assay [19] worked out at 0.0398 AEB; in assay [20] it was 0.012 AEB.

Regarding “IL-10 capture antibody (Biolegend 506802)”, the average AMB turned out to be 0.0097 AMB in assay [21]; 0.0045 AMB in assay [29]; 0.0281 AMB in assay [31]; 0.121 AMB in assay [33]; 0.561 AMB in assay [36]; 0.0058 AMB in [38]. Also, the average AMB in assay [39] came to 0.0042 AMB. Besides, the average AEB in assay [22] came out at 0.386 AEB; in assay [23] it was 0.306 AEB; in assay [24] it was 0.05 AEB; in assay [25] it was 0.0218 AEB; in assay [26], 1.41 AEB; in assay [27], 0.0765 AEB. Also, the average AEB was 0.0296 AEB in [28]; 2.05 AEB in assay [30]; 0.0439 AEB in assay [32]; 0.0194 AEB in assay [34]; 0.0208 AEB in assay [35]; 0.0355 AEB in assay [37]. Further, the average AEB stood at 0.0395 AEB in assay [40] and 0.107 AEB in [41].

For the origin of these results see patent US20230236179A1.
